The text below walks through data of patent US20240239878A1 (SHANGHAI QILU PHARMACEUTICAL RESEARCH AND DEVELOPMENT CENTRE, published 2024).

Changes are numbered by the printed parent chain.

The target in assay [1] is T1, human DLL1 (Sino Biological, Cat. No. 11635-H08H) (human, UniProt O00548 18-545).
T1 construct: also called family protein DLL1
T1 sequence: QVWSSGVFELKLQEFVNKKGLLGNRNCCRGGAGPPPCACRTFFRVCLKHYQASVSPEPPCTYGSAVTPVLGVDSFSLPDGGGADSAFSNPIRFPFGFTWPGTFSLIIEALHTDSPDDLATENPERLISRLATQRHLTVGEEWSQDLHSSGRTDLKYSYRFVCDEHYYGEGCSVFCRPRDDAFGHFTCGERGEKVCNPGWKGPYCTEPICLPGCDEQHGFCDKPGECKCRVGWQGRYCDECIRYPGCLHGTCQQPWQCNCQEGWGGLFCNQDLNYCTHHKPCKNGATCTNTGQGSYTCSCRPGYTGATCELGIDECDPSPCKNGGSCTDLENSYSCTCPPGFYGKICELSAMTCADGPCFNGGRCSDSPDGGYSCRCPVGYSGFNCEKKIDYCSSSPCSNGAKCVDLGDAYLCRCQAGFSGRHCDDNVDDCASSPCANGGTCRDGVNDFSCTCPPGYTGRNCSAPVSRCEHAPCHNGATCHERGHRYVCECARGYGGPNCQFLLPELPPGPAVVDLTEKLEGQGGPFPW
Description: ELISA, plate coated with human DLL1 at 1 ug/mL, OD 450nm. The protocol: The antigen was washed three times with PBST, 300 μL/well. The antigen was blocked with 1% BSA (in PBST), 200 μL/well, and incubated at 37° C. for 1.5 hours.
Antibodies to be tested were diluted with 1% BSA (in PBS) at a starting concentration of 100 nM, downwards by a 10-fold gradient for 7 concentrations. The plates were washed three times with PBST, 300 μL/well. The diluted antibody was added to an ELISA plate at 100 μL/well and incubated at room temperature for 2 hours. The antibodies were washed three times with PBST, 300 μL/well. The secondary antibodies (goat anti-human IgG Fc for DLL4 (HRP), 1:20000 dilution: HRP goat anti-mouse IgG (H+L) for DLL1, 1:10000 dilution) were diluted with 1% BSA in PBST. The diluted secondary antibodies were added to the ELISA plate at 100 μL/well and incubated at room temperature for 1 hour. The plates were washed 6 times with PBST, 300 μL/well. The developing solution (TMA and TMB 1:1 mixed) was prepared. The developing solution was added to the plate, 100 μL/well, and incubated in the dark for 5 min. 50 μL of ELISA stop solution was added to the plate and shaken well.
OD450s were read on the envision and plotted on the GraphPad for EC₅₀ values.

Assay [2] deals with T2, Cynomolgus monkey DLL3 on HEK293 cells (HEK293-cyno DLL3) (Cynomolgus monkey, UniProt Q9NYJ7 27-618 (human entry)).
T2 chain: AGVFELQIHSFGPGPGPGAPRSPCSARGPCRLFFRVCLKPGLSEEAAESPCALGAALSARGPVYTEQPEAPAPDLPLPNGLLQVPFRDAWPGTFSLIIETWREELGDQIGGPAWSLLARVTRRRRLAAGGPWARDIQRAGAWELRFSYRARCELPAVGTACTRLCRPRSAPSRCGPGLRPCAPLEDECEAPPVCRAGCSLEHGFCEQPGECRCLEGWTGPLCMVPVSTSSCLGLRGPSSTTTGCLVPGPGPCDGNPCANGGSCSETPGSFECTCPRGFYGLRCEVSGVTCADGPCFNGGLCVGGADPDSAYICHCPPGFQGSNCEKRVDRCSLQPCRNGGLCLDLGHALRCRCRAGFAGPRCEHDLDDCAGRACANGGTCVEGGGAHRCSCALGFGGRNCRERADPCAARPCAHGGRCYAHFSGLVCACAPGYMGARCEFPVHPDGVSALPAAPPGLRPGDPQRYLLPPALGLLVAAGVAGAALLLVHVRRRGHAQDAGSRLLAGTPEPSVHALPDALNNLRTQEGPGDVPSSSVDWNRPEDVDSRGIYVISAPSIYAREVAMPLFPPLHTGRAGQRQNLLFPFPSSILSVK
Briefly: flow cytometry, HEK293-cyno DLL3 cells. The protocol: Monoclonal selection was performed, and the expression level of DLL3 protein in the monoclonal cells were identified by flow cytometry. The culture was expanded and stored in storage for later use. SHP-77 and HEK293-cyno DLL3 cells were cultured. The culture medium for SHP-77 cells were RPMI1640+10% FBS, and the culture medium for HEK293 cyno DLL3 cells were DMEM+10% FBS+200 μg/ml Hygromycin. The cells were cultured in a T75 cell culture flask at a 37° ° C. in a 5% CO₂ incubator. When using cells, they are washed with sterile DPBS, digested with 0.25% trypsin EDTA for about 5 minutes, and then stopped with a complete medium.
The digested cells were centrifuged at 1000 rpm for 5 min at room temperature. The supernatant was discarded and the cells were resuspended in 100 μL of 1% BSA (in PBS). The cells were counted and adjusted to a cell density of 1E6/m. The dilute cells were seeded in a 96-well round-bottom culture plate (corning 3799), and centrifuged at 1500 rpm for 5 min at 4° C. The supernatant was discarded and the cells were stored at 4° C. until use. Antibody samples to be tested were diluted with 1% BSA (in PBS) at a starting concentration of 100 nM, downwards by a 10-fold gradient for 7 concentrations. The cells were resuspended with the diluted antibody at 100 μL/well and incubated for 1 hour at 4° C. The cells were centrifuged at 1500 rpm for 5 minutes at 4° C. and the supernatant was discarded. The cells were resuspended and washed with 160 μL of 1% BSA (in PBS), centrifuged at 1500 rpm for 5 minutes at 4° C. The supernatant was discarded. The secondary antibody (goat anti human IgG Fc PE) was diluted 1:200 with 1% BSA (in PBS) according to the manufacturer's instructions and the cells were resuspended with the diluted secondary antibody. 100 μL/well, and incubated for 0.5 h at 4° C. The cells were centrifuged at 1500 rpm for 5 minutes at 4° C. and the supernatant was discarded. The cells were resuspended and washed with 160 μL of 1% BSA (in PBS), centrifuged at 1500 rpm for 5 minutes at 4° C. The supernatant was discarded. The cells were resuspended in 100 μL of 1% BSA (in PBS), and filtered across a 300 mesh gauze. The mean fluorescence intensity of the PE channels was measured by flow cytometry.

B1: hDLL3-3-1 camelid-derived humanized anti-DLL3 antibody (antibody, human IgG1, V domains shown)
VH: EVQLVESGGGLVQPGGSLRLSCAASTYTISSGYMGWFRQAPGKEREGVAAIYIGGSTTLYADSVKGRFTISRDNSKNTLYLQMNSLRAEDTAVYYCAAQLRPNSAYHPLDGRKYNYWGQGTLVTVSS
Regarding B1, the binding result in assay [1] was “no binding (tested: 100 nM)”.

B2: hDLL3-3-2 camelid-derived humanized anti-DLL3 antibody (antibody, V domains shown)
VH: B1 VH with A23K, A24S, S25P
On to B2, for which the binding result in assay [1] was “no binding (tested: 100 nM)”.

B3: DLL3-26 camelid-derived anti-DLL3 chimeric antibody (antibody, human IgG1, V domains shown)
VH: QVQLVESGGGSVQAGGSLRLSCAASGDIYSSSYVGWFRQAPGKEREGVAIIYTSGDSTYYANSVKGRFTISQDKAKKTLYLQMNSLKPEDTAMYYCAARFAIDNSNYWGQGTQVTVSS
In the case of B3, in assay [2], a half-maximal effect (EC50) was put at 439 pM and the “Top MFI” value came to 450 MFI.

B4: hDLL3-26 camelid-derived humanized anti-DLL3 antibody (antibody, V domains shown)
VH: EVQLVESGGGLVQPGGSLRLSCAASGDIYSSSYVGWFRQAPGKEREGVAIIYTSGDSTYYADSVKGRFTISRDNSKNTLYLQMNSLRAEDTAVYYCAARFAIDNSNYWGQGTLVTVSS
Regarding B4, the binding result in assay [1] is “no binding (tested: 100 nM)”.

B5: DLL3-122 camelid-derived anti-DLL3 chimeric antibody (antibody, human IgG1, V domains shown)
VH: QVQLVESGGGSVQAGGSLRLSCTASGDTYRSYCMGWFRKAPGKEREGVADIVSDGSTSYADSVKGRFTISKDNAKNTLYLQMNSLKPEDTAMYYCAVDRGGSGGYCYTGRYDYWGQGTQVTVSS
With B5, in assay [2], a half-maximal response (EC50) required 415 pM and the “Top MFI” value came to 460 MFI.

B6: hDLL3-122 camelid-derived humanized anti-DLL3 antibody (antibody, V domains shown)
VH: EVQLVESGGGLVQPGGSLRLSCAASGDTYRSYCMGWFRQAPGKEREGVADIVSDGSTSYADSVKGRFTISRDNSKNTLYLQMNSLRAEDTAVYYCAVDRGGSGGYCYTGRYDYWGQGTLVTVSS
Consider B6, for which the binding result in assay [1] is “no binding (tested: 100 nM)”.

B7: DLL3-3 camelid-derived anti-DLL3 chimeric antibody (antibody, human IgG1, V domains shown)
VH: DVQLVESGGGSVQAGGSLKLSCKSPTYTISSGYMGWFRQAPGKEREGVAAIYIGGSTTLYADSVKGRFTISADNAEKTVYLQMNTLKPEDSAMYYCAAQLRPNSAYHPLDGRKYNYWGQGTQVTVSS
In the case of B7, in assay [2], the half-maximal effective concentration (EC50) stood at 25 pM and the “Top MFI” value turned out to be 438 MFI.
